Source: patent US11279770 (MERUS N V, dated 2022)
Blank lines part the entries; values can stand above or below the binder they belong to.

Key:
[1] = biological target: T1, human ErbB-2 (HER2) (human, UniProt P04626 23-1255); test: cell-based or functional assay
[2] = biological target: human HER2 and HER3 co-expressed on tumour cells (human, UniProt P04626 23-1255; P21860 20-1342); test: cell-based or functional assay
[3] = biological target: T2, ErbB2-Fc (RND systems) (UniProt P04626 23-652); test: SPR (BIACORE T100), ErbB2-Fc on CM5 chip, bispecific as analyte, 1:1 monovalent model
T2 construct: Bought protein; also called Fc-HER2; Her2-Fc; not shown: Fc part of the bought fusion protein

[4] = biological target: T1, human ErbB-2 (HER2); test: antigen titration ELISA: coated monomeric HER2 (ECD-Erbb-2) varied about 0.019-2.5 µg/ml (x axis), IgG fixed at 10 µg/ml as the text says; readout OD450 [lower panel]
Description: Wells of the ELISA plates were blocked with PBS (pH 7.2) containing 5% BSA for 1 hour at 37° C. Selected antibodies were tested in duplo at a concentration of 10 µg/ml diluted in PBS-2% BSA and allowed to bind for 2 hours at 25° C. As a control the procedure was performed simultaneously with an antibody specific for the coated antigens and a negative control antibody. The ELISA plates were washed 5 times with PBS-T (PBS-0.05% v/v Tween 20). Bound IgG was detected with 1:2000 diluted IIRP-conjugate (Goat anti-mouse IgG, BD Biosciences) and was allowed to bind for 2 hours at 25° C. The ELISA plates were washed 5 times with PBS-T (PBS-0.05% Tween 20) and bound IgG was detected by means of OD492 nm measurement.

[5] = biological target: T3, human ErbB-3 (HER3) (human, UniProt P21860 20-1342); test: FACS on CHO-K1 cells with HER3 constructs; epitope group 3 = 'Reactivity to rat, cyno and human HER3' (Table 5)
T3 construct: whole, on cells; On tumour cell lines

[6] = biological target: T3, human ErbB-3 (HER3); test: cell-based or functional assay

HRG dependent MCF-7 proliferation assay, % activity compared to #Ab6, 1 µg/ml IgG [1]: 58%
SKBR-3 proliferation assay, % activity compared to trastuzumab, 1 µg/ml IgG [1]: 49%
B1: PG2973 (antibody, IgG1, V domains shown)
VH: QVQLKQSGAELVRPGASVKLSCKASGYIFTGYYINWLRQRPGQGLEWIAKIYPGSGNTYYNEKFRGKATLTAEESSSTAYMQLSSLTSEDSAVYFCARGPHYDYDGPWFVYWGQGTLVTVSS
VL: not shown

HRG dependent MCF-7 proliferation assay, % activity compared to #Ab6, 1 µg/ml IgG [1]: 56%
SKBR-3 proliferation assay, % activity compared to trastuzumab, 1 µg/ml IgG [1]: 49%
B5: PG3004 (antibody, IgG1, V domains shown)
VH: QVQLKQSGAELVRPGASVKLSCKASGYTFTGYYINWVKQRPGQGLEWIARIYPGSGYTYYNEKFKGKATLTAEESSSTAYMHLSSLTSEDSAVYFCARPHYGYDDWYFGVWGTGTTVTVSS
VL: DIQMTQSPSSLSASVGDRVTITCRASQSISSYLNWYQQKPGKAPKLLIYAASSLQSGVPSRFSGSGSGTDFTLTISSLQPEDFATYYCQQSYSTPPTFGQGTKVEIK

binding result [5]: binds
B6: PG3099 (antibody, IgG1, V domains shown)
VH: EVQLQQPGAELVRPGTSVKLSCKASGYTFTSYWMHWVKQRPGQGLEWIGILDPSDSYTTYNQKFKGKATLTVDTSSSIAYMQLSSLTSEDSALYYCARGGDYDEGGAMDYWGQGTSVTVSS
VL: not shown
notes: Monospecific IgG1; also called MF3099; copies: 2 + 2

Continued, binder first:

B2: PB3448 (MF1849xMF3178) (bispecific antibody, IgG1, V domains shown)
VH 1: QVQLVESGGGVVQPGRSLRLSCAASGFTFSSYGMHWVRQAPGKGLEWVAVISYDGSNKYYADSVKGRFTISRDNSKNTLYLQMNSLRAEDTAVYYCAKGDYGSYSSYAFDYWGQGTLVTVSS
VH 2: not shown
VL: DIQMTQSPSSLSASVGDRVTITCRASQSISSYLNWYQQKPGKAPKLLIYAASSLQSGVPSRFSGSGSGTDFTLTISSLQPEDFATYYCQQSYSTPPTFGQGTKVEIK
notes: IgG1 bispecific with CH3 heterodimerisation mutations
BxPC3 % Inhibition [2]: -22%
MCF-7 IC50 (pM), HRG dependent proliferation [2]: 371 pM
Kd [3]: 5.4 nM

B3: PG2930 (antibody, IgG1, V domains shown)
VH: EVQLQQSGAELVKPGASVMMSCKVSGYTFTSYPIAWMKQVHGKSLEWIGNFHPYSDDTKYNENFKGKATLTVEKSSSTVYLELSRLTSDDSAVYYCARSNPLYYFAMDYWGQGTSVTVSS
VL: not shown
notes: Monospecific IgG1; also called MF2930; copies: 2 + 2
HRG dependent MCF-7 proliferation assay, % activity compared to #Ab6, 1 µg/ml IgG [1]: 7%
SKBR-3 proliferation assay, % activity compared to trastuzumab, 1 µg/ml IgG [1]: 0%
EC50 (read off the curve) [4]: ~0.7 µg/mL

B4: PB3566 (MF3004xMF3178) (bispecific antibody, IgG1, V domains shown)
VH 1: QVQLKQSGAELVRPGASVKLSCKASGYTFTGYYINWVKQRPGQGLEWIARIYPGSGYTYYNEKFKGKATLTAEESSSTAYMHLSSLTSEDSAVYFCARPHYGYDDWYFGVWGTGTTVTVSS
VH 2: not shown
VL: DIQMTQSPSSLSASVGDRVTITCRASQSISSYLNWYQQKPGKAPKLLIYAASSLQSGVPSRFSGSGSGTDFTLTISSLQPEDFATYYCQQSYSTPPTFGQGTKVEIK
BxPC3 % Inhibition [2]: -20%
MCF-7 IC50 (pM), HRG dependent proliferation [2]: 7.9 pM

B7: #Ab6 (antibody, V domains shown)
VH: EVQLLESGGGLVQPGGSLRLSCAASGFTFSHYVMAWVRQAPGKGLEWVSSISSSGGWTLYADSVKGRFTISRDNSKNTLYLQMNSLRAEDTAVYYCTRGLKMATIFDYWGQGTLVTVSS
VL: QSALTQPASVSGSPGQSITISCTGTSSDVGSYNVVSWYQQHPGKAPKLIIYEVSQRPSGVSNRFSGSKSGNTASLTISGLQTEDEADYYCCSYAGSSIFVIFGGGTKVTVL
BxPC3 % Inhibition [6]: -7%
MCF-7 IC50 (pM), HRG dependent proliferation [6]: 504 pM
